Where no end group is shown, it is not given here.

To fix the notation:
T1: evolved variant of mature Streptomyces mobaraensis transglutaminase, including a two amino acid linker and … (Streptomyces mobaraensis, UniProt P81453 79-407)
T1 chain: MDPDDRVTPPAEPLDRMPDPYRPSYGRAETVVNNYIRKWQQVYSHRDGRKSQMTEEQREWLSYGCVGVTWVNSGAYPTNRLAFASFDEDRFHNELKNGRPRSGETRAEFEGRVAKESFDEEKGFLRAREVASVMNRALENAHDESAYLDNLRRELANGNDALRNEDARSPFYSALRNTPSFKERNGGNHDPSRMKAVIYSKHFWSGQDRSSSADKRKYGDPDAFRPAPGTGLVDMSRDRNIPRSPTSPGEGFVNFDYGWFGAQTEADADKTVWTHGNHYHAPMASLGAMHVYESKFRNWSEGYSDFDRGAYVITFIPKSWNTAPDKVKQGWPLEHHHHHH

For the first data set, the target named is T2, thermostable mature transglutaminase variant (SEQ ID NO: 3) (Streptomyces mobaraensis, UniProt P81453).
T2 construct: made in house; host or cells: E. coli (lysate)
T2 sequence (P81453 other isoform, or with tags, fused parts or gaps): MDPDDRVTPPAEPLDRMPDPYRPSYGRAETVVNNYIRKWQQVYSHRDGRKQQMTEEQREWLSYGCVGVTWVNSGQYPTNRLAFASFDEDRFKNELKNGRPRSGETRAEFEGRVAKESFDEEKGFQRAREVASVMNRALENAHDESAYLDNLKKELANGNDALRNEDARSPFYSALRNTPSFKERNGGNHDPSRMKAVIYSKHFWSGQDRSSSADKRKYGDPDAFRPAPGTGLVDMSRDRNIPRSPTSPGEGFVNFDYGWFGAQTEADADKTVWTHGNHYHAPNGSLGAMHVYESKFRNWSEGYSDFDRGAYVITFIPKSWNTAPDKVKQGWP
Assay: not given
The data set is classed as biochemical. Conditions: increase in transglutaminase activity relative to wild-type pro-peptide, casein assay; Method A. An excerpt:
Method A. A bicistronic expression vector encoding the wild-type pro-domain of transglutaminase (SEQ ID NO: 2) and a thermostable mature transglutaminase variant (SEQ ID NO: 3) as separate polypeptides was cloned as described in PCT/US20/49226 (WO2021/178001 A1). The vector was used as a template for synthesis of a random mutagenesis library targeting the pro-domain coding sequence to create pro-domain peptide variants.
Method A. Plasmid libraries containing mature transglutaminase and variant pro-domain peptides were plated on Luria-Bertani (LB) agar plates containing 50 μg/mL of kanamycin. After incubation for at least 16 hours at 37° C., colonies were picked and inoculated into 1 mL of LB broth with 50 μg/mL kanamycin in one well of a 96 deep well culture plate. The plate was covered with a breathable seal and incubated overnight at 37° C. with 400 rpm of shaking. 10 μL of the seed culture was used to inoculate 1 mL of media in a 96 deep well culture plate for expression. The expression plate was allowed to grow for 6-8 hours at 30° C. Expression was then induced by adding isopropyl beta-D-1-thiogalactopyranoside (IPTG) to a final concentration of 1 mM and the temperature was reduced to 20° C. while growth continued for an additional 15 hours. Cells were harvested by centrifugation at 4000 rcf for 30 minutes and pellets were frozen at −80° C.
A secondary screen was performed to determine initial rate of transglutaminase in the presence of the pro-peptide variants using transglutaminase-catalyzed labeling of casein with dansylcadaverine (e.g., a commercially available kit such as the Transglutaminase Fluorogenic Activity Assay Kit, T036, Zedira, Germany). Transglutaminase activity was monitored by measuring the fluorescence (excitation wavelength 332 nm; emission wavelength 500 nm) using a BioTek Synergy H1 microplate reader. Transglutaminase-catalyzed covalent coupling (crosslinking) of monodansylcadaverine with N,N-dimethylcasein produces a product that causes a shift in intensity and wavelength of fluorescence of the dansyl group now linked to the casein. The relative transglutaminase activity is shown by increase of fluorescence intensity over time. The data were normalized for transglutaminase expression levels in E. coli lysate as described above. Pro-domain variants were identified based on their ability to alter the activity of the mature transglutaminase enzyme. […]
It is believed that these pro-peptide variants have reduced binding affinity with mature mTgase.
Turning to “MDNGAGEETKSVAETYRLTADDVANINALNESAPAASSAGPSFRAP [Variant Y12V]”, the “Reduction in binding affinity of inhibitory peptide relative to WT” value is recorded as more than 1.2 fold.

Turning to “MDNGAGEETKSYAETYRLTADDVANINALNESAPAASPAGPSFRAP [Variant S38P]”, the “Reduction in binding affinity of inhibitory peptide relative to WT” value is on record as more than 1.2 fold.

On to “MDNGAGEETKSYARTYRLTADDVANINALNESAPAASSAGPSFRAP [Variant E14R]”, for which the “Reduction in binding affinity of inhibitory peptide relative to WT” value is more than 1.2 fold.

Turning to MDNGAGEETKSYAETYRLTAD [ΔD22-P46], the “Reduction in binding affinity of inhibitory peptide relative to WT” value was more than 1.2 fold.

As to “MDNGAGEEQKSYAETYRLTADDVANINALNESAPAASSAGPSFRAP [Variant T9Q]”, the “Reduction in binding affinity of inhibitory peptide relative to WT” value is given as more than 1.2 fold.

With “MDNGAGEETKSYAETYRLTADDVANYNALNESAPAASSAGPSFRAP [Variant I26Y]”, the “Reduction in binding affinity of inhibitory peptide relative to WT” value is given as more than 1.2 fold.

As to “MDNGAGEETKSLAETYRLTADDVANINALNESAPAASSAGPSFRAP [Variant Y12L]”, the “Reduction in binding affinity of inhibitory peptide relative to WT” value is reported as more than 1.2 fold.

With “MDNGAGEETKSYAETYRLTADDVANENALNESAPAASSAGPSFRAP [Variant I26E]”, the “Reduction in binding affinity of inhibitory peptide relative to WT” value is given as more than 1.2 fold.

Take “MDNGAGGETKSYAETYRLTADDVANINALNESAPAASSAGPSFRAP [Variant E7G]”: the “Reduction in binding affinity of inhibitory peptide relative to WT” value is listed as more than 1.2 fold.

Take “MDNGAGEETKSTAETYRLTADDVANINALNESAPAASSAGPSFRAP [Variant Y12T]”: the “Reduction in binding affinity of inhibitory peptide relative to WT” value was more than 1.2 fold.

“MDNGAGEETKSYAETYRWTADDVANINALNESAPAASSAGPSFRAP [Variant L18W]”: the “Reduction in binding affinity of inhibitory peptide relative to WT” value was more than 1.2 fold.

In the case of MDNGAGEETKSYAETYR [ΔL18-P46], the “Reduction in binding affinity of inhibitory peptide relative to WT” value is recorded as more than 1.2 fold.

Take “MDNGAGEETGSYAETYRLTADDVANINALNESAPAASSAGPSFRAP [Variant K10G]”: the “Reduction in binding affinity of inhibitory peptide relative to WT” value is reported as more than 1.2 fold.

Take “MDNGAGEETKSYACTYRLTADDVANINALNESAPAASSAGPSFRAP [Variant E14C]”: the “Reduction in binding affinity of inhibitory peptide relative to WT” value was more than 1.2 fold.

For MDNGAGEETKSYAETYRLTADDVAN [ΔI26-P46], the “Reduction in binding affinity of inhibitory peptide relative to WT” value is more than 1.2 fold.

For “MDNGAGEETKSSAETYRLTADDVANINALNESAPAASSAGPSFRAP [Variant Y12S]”, the “Reduction in binding affinity of inhibitory peptide relative to WT” value is listed as more than 5 fold.

“MDNGAGEETKSYAETYRKTADDVANINALNESAPAASSAGPSFRAP [Variant L18K]”: the “Reduction in binding affinity of inhibitory peptide relative to WT” value is more than 1.2 fold.

For another data set, the target named is T1, evolved variant of mature Streptomyces …. Description: cell-based or functional assay.
Details: not given
On to MSNGAGSETKSYAETYRLTADQVANINALNESAPAASSAGPSFRAP [pro-peptide variant D2S, E7S, D22Q (Method B)], for which the Inhibition is more than 2 fold.

MDNGAGSETKSYAETYRLTATDVANINALNESAPAASSAGPSFRAP [pro-peptide variant E7S, D21T (Method B)] returned an Inhibition of more than 1.2 fold.

For the molecule MDNGAGSETKSYAETYRVTARDVANINALNESAPAASSAGPSFRAP [pro-peptide variant E7S, L18V, D21R (Method B)], the Inhibition was more than 2 fold.

For MDNGAGEETKSYAETYRVTATQVANINALNESAPAASSAGPSFRAP [pro-peptide variant L18V, D21T, D22Q (Method B)], the Inhibition is more than 2 fold.

MDNGAGSETKSYAETYRVTAIDVANINALNESAPAASSAGPSFRAP [pro-peptide variant E7S, L18V, D21I (Method B)] showed an Inhibition of more than 2 fold.

As for MDNGAGSETKSYAETYRLTARDVANINALNESAPAASSAGPSFRAP [pro-peptide variant E7S, D21R (Method B)], the Inhibition was more than 1.2 fold.

MINGAGEETKSYAETYRLTADQVANINALNESAPAASSAGPSFRAP [pro-peptide variant D2I, D22Q (Method B)] yielded an Inhibition of more than 1.2 fold.

In the case of MDNGAGEETKSYAETYRLTATQVANINALNESAPAASSAGPSFRAP [pro-peptide variant D21T, D22Q (Method B)], the Inhibition was more than 1.2 fold.

For MINGAGSETKSYAETYRLTADQVANINALNESAPAASSAGPSFRAP [pro-peptide variant D2I, E7S, D22Q (Method B)], the Inhibition was more than 2 fold.

Turning to MDNGAGEETKSYAETYRVTADDVANINALNESAPAASSAGPSFRAP [pro-peptide variant L18V (Method B)], the Inhibition is more than 2 fold.

MDNGAGEETKSYAETYRVTATDVANINALNESAPAASSAGPSFRAP [pro-peptide variant L18V, D21T (Method B)] displayed an Inhibition of more than 2 fold.

As for MSNGAGSETKSYAETYRLTATQVANINALNESAPAASSAGPSFRAP [pro-peptide variant D2S, E7S, D21T, D22Q (Method B)], the Inhibition is more than 2 fold.

MSNGAGEETKSYAETYRLTATQVANINALNESAPAASSAGPSFRAP [pro-peptide variant D2S, D21T, D22Q (Method B)] had an Inhibition of more than 1.2 fold.

Molecule MDNGAGSETKSYAETYRLTATQVANINALNESAPAASSAGPSFRAP [pro-peptide variant E7S, D21T, D22Q (Method B)] displayed an Inhibition of more than 1.2 fold.

As to MINGAGEETKSYAETYRLTATQVANINALNESAPAASSAGPSFRAP [pro-peptide variant D2I, D21T, D22Q (Method B)], the Inhibition was more than 1.2 fold.

The molecule MSNGAGSETKSYAETYRLTADDVANINALNESAPAASSAGPSFRAP [pro-peptide variant D2S, E7S (Method B)] came in with an Inhibition of more than 2 fold.

Regarding MINGAGSETKSYAETYRLTAIDVANINALNESAPAASSAGPSFRAP [pro-peptide variant D2I, E7S, D21I (Method B)], the Inhibition was more than 1.2 fold.

Consider MSNGAGEETKSYAETYRVTADQVANINALNESAPAASSAGPSFRAP [pro-peptide variant D2S, L18V, D22Q (Method B)], for which the Inhibition is more than 2 fold.

In turn, MINGAGSETKSYAETYRVTARDVANINALNESAPAASSAGPSFRAP [pro-peptide variant D2I, E7S, L18V, D21R (Method B)] had an Inhibition of more than 2 fold.

As for MFNGAGEETKSYAETYRLTADDVANINALNESAPAASSAGPSFRAP [pro-peptide variant D2F (Method B)], the Inhibition was more than 1.2 fold.

With MDNGAGSETKSYAETYRLTADQVANINALNESAPAASSAGPSFRAP [pro-peptide variant E7S, D22Q (Method B)], the Inhibition is more than 1.2 fold.

The molecule MSNGAGSETKSYAETYRLTAIDVANINALNESAPAASSAGPSFRAP [pro-peptide variant D2S, E7S, D21I (Method B)] had an Inhibition of more than 1.2 fold.

Molecule MSNGAGEETKSYAETYRLTADQVANINALNESAPAASSAGPSFRAP [pro-peptide variant D2S, D22Q (Method B)] gave an Inhibition of more than 2 fold.

The next data set deals with T3, mature evolved transglutaminase (SEQ ID NO: 5) (Streptomyces mobaraensis, UniProt P81453, G359A/K167H/K227R/K228R/N358M/Q126S/Q150A/Q200L).
T3 construct: hexa-His tag with two amino acid linker (C); made in house; host or cells: E. coli BL21 (DE3)
Description: transglutaminase thermostability: activity after being held at 37-50 °C. The data set is classed as biochemical. More on the design: key: The symbol, —, represents not determined, neutral, or reduced performance. Conditions: relative to wild-type pro-peptide; held at 37° C.-50° C. for 30 minutes, diluted 10-fold to 100-fold. As to the method: The terms “stability” and “thermostability” are used interchangeably to refer to increased residual activity of mature transglutaminase after incubation at elevated temperatures. In some embodiments, a pro-peptide variant increases the stability of a mature transglutaminase compared to the wild type pro-peptide. Measurement of stability is depicted in Example 4.
It is believed that these pro-peptide variants confer thermal stability to mature transglutaminase.
For “D2I, D21T, D22Q: combination variant of pro-peptide SEQ ID NO: 2, Method B (MINGAGEETKSYAETYRLTATQVANINALNESAPAASSAGPSFRAP)”, the Thermostability entry is recorded as “—”.

Take “D2I, E7S, D22Q: combination variant of pro-peptide SEQ ID NO: 2, Method B (MINGAGSETKSYAETYRLTADQVANINALNESAPAASSAGPSFRAP)”: the Thermostability entry is “—”.

As to “E7S, L18V, D21R: combination variant of pro-peptide SEQ ID NO: 2, Method B (MDNGAGSETKSYAETYRVTARDVANINALNESAPAASSAGPSFRAP)”, the Thermostability result was “—”.

These data come from patent publication US20250304927A1, “PRO-PEPTIDE VARIANTS FOR MODULATING ACTIVITY OF TRANSGLUTAMINASES” (CURIE CO. INC., priority 2022, published 2025).
